Laboratory results taken from patent US20180044374A1.
“And” between values parts separate entries of the source, which are not always exact repeats. Equal entries are not always repeated.

Experiments:
[1] = target: human polyclonal IgG (Gammanorm) (human); test: dynamic binding capacity; matrix I1, ligand 11.2 mg/ml
[2] = target: human polyclonal IgG (Gammanorm) (human); test: dynamic binding capacity; matrix A38, ligand 11.34 mg/ml
[3] = target: human polyclonal IgG (Gammanorm) (human); test: dynamic binding capacity; matrix A32, ligand […]
[4] = target: human polyclonal IgG (Gammanorm) (human); test: dynamic binding capacity; matrix A33, ligand 7.3 mg/ml
[5] = target: human polyclonal IgG (Gammanorm) (human); test: dynamic binding capacity; ligand 20 mg/ml, before 1 M NaOH
[6] = target: human polyclonal IgG (Gammanorm) (human); test: dynamic binding capacity; matrix A38, ligand 7.5 mg/ml
[7] = target: human polyclonal IgG (Gammanorm) (human); test: dynamic binding capacity; matrix A18, ligand 8.2 mg/ml
[8] = target: human polyclonal IgG (Gammanorm) (human); test: dynamic binding capacity; matrix A27, ligand 7.5 mg/ml
[9] = target: human polyclonal IgG (Gammanorm) (human); test: dynamic binding capacity; matrix A62a, ligand 7.5 mg/ml
[10] = target: human polyclonal IgG (Gammanorm) (human); test: dynamic binding capacity; matrix C1, ligand […]
[11] = target: human polyclonal IgG (Gammanorm) (human); test: dynamic binding capacity; matrix A38, ligand 11.3 mg/ml
[12] = target: human polyclonal IgG (Gammanorm) (human); test: dynamic binding capacity; matrix A28, ligand 7.9 mg/ml
[13] = target: human polyclonal IgG (Gammanorm) (human); test: dynamic binding capacity; matrix A65b, ligand […]
[14] = target: human polyclonal IgG (Gammanorm) (human); test: dynamic binding capacity; matrix A63a, ligand 6.6 mg/ml
[15] = target: human polyclonal IgG (Gammanorm) (human); test: dynamic binding capacity; matrix A62a, ligand 14.8 mg/ml
[16] = target: human polyclonal IgG (Gammanorm) (human); test: dynamic binding capacity; matrix A28, ligand 15.8 mg/ml
[17] = target: human polyclonal IgG (Gammanorm) (human); test: dynamic binding capacity; matrix I1, ligand 6.1 mg/ml
[18] = target: human polyclonal IgG (Gammanorm) (human); test: dynamic binding capacity; matrix B5, ligand 6.3 mg/ml
[19] = target: human polyclonal IgG (Gammanorm) (human); test: dynamic binding capacity; matrix A39, ligand 10.48 mg/ml
[20] = target: human polyclonal IgG (Gammanorm) (human); test: dynamic binding capacity; matrix A41, ligand 8.83 mg/ml
[21] = target: human polyclonal IgG (Gammanorm) (human); test: dynamic binding capacity; matrix C2, ligand […]
[22] = target: human polyclonal IgG (Gammanorm) (human); test: dynamic binding capacity; ligand 13 mg/ml, before 1 M NaOH
[23] = target: human polyclonal IgG (Gammanorm) (human); test: dynamic binding capacity; ligand 16 mg/ml, before 1 M NaOH
[24] = target: human polyclonal IgG (Gammanorm) (human); test: dynamic binding capacity; matrix A28, ligand 11.9 mg/ml
[25] = target: human polyclonal IgG (Gammanorm) (human); test: dynamic binding capacity; matrix C2, ligand 10.5 mg/ml
[26] = target: human polyclonal IgG (Gammanorm) (human); test: dynamic binding capacity; matrix A41, ligand 5.0 mg/ml
[27] = target: human polyclonal IgG (Gammanorm) (human); test: dynamic binding capacity; matrix A65a, ligand 6.1 mg/ml
[28] = target: human polyclonal IgG (Gammanorm) (human); test: dynamic binding capacity; matrix A65a, ligand 13.6 mg/ml
[29] = target: human polyclonal IgG (Gammanorm) (human); test: dynamic binding capacity; matrix A65a, ligand 6.6 mg/ml
[30] = target: human polyclonal IgG (Gammanorm) (human); test: dynamic binding capacity; matrix A39, ligand 6.96 mg/ml
[31] = target: human polyclonal IgG (Gammanorm) (human); test: dynamic binding capacity; matrix H40, ligand 9.1 mg/ml
[32] = target: human polyclonal IgG (Gammanorm) (human); test: dynamic binding capacity; matrix B5, ligand 9.6 mg/ml
[33] = target: human polyclonal IgG (Gammanorm) (human); test: dynamic binding capacity; matrix A65b, ligand 8.8 mg/ml
[34] = target: human polyclonal IgG (Gammanorm) (human); test: dynamic binding capacity; matrix A40, ligand 13.15 mg/ml
[35] = target: human polyclonal IgG (Gammanorm) (human); test: dynamic binding capacity; matrix A38, ligand 7.45 mg/ml
[36] = target: human polyclonal IgG (Gammanorm) (human); test: dynamic binding capacity; matrix A43, ligand 10.51 mg/ml
[37] = target: human polyclonal IgG (Gammanorm) (human); test: dynamic binding capacity; matrix A32, ligand 13.3 mg/ml
[38] = target: human polyclonal IgG (Gammanorm) (human); test: dynamic binding capacity; matrix A20, ligand 7.3 mg/ml

Substance: Zvar(Q9A, N11E, Q40V, A42K, N43A, L44I)4 (designed binder)
- Qb10% 2.4 min [1]: 57 mg/mL
- Qb10% 6 min [1]: 68 mg/mL
- Qb10% 2.4 min [2]: 48.1 mg/mL
- Qb10% 6 min [2]: 72.8 mg/mL
- Qb10% 2.4 min [3]: 40 mg/mL
- Qb10% 6 min [3]: 57 mg/mL
- Qb10% 2.4 min [4]: 49 mg/mL
- Qb10% 6 min [4]: 56 mg/mL
- Qb10%, 6 min, before incubation [5]: 73 mg/mL
- Qb10% 2.4 min [6]: 44 mg/mL
- Qb10% 6 min [6]: 58 mg/mL
- Qb10% 2.4 min [7]: 52 mg/mL
- Qb10% 6 min [7]: 59 mg/mL
- Qb10% 2.4 min [8]: 29.2 mg/mL
- Qb10% 6 min [8]: 48.7 mg/mL
- Qb10% 2.4 min [9]: 47 mg/mL
- Qb10% 6 min [9]: 56 mg/mL
- Qb10% 2.4 min [10]: 38 mg/mL
- Qb10% 6 min [10]: 47 mg/mL
- Qb10% 2.4 min [11]: 48 mg/mL
- Qb10% 6 min [11]: 73 mg/mL
- Qb10% 2.4 min [12]: 42.4 mg/mL and 42 mg/mL
- Qb10% 6 min [12]: 58.2 mg/mL and 58 mg/mL
- Qb10% 2.4 min [13]: 42 mg/mL
- Qb10% 6 min [13]: 46 mg/mL
- Qb10% 2.4 min [14]: 40 mg/mL
- Qb10% 6 min [14]: 44 mg/mL
- Qb10% 2.4 min [15]: 55 mg/mL
- Qb10% 6 min [15]: 62 mg/mL
- Qb10% 2.4 min [16]: 37 mg/mL
- Qb10% 6 min [16]: 67 mg/mL
- Qb10% 2.4 min [17]: 45 mg/mL
- Qb10% 6 min [17]: 51 mg/mL
- Qb10% 2.4 min [18]: 32 mg/mL
- Qb10% 6 min [18]: 38 mg/mL
- Qb10% 2.4 min [19]: 44.4 mg/mL
- Qb10% 6 min [19]: 64.8 mg/mL
- Qb10% 2.4 min [20]: 38.5 mg/mL and 37.8 mg/mL and 35.1 mg/mL
- Qb10% 6 min [20]: 56.8 mg/mL and 58.6 mg/mL and 57.2 mg/mL
- Qb10% 2.4 min [21]: 39 mg/mL
- Qb10% 6 min [21]: 46 mg/mL
- Qb10%, 6 min, before incubation [22]: 79 mg/mL
- Qb10%, 6 min, before incubation [23]: 73 mg/mL
- Qb10% 2.4 min [24]: 39.9 mg/mL and 40 mg/mL
- Qb10% 6 min [24]: 63.8 mg/mL and 64 mg/mL
- Qb10% 2.4 min [25]: 42 mg/mL
- Qb10% 6 min [25]: 57 mg/mL
- Qb10% 2.4 min [26]: 35.6 mg/mL
- Qb10% 6 min [26]: 46 mg/mL
- Qb10% 2.4 min [27]: 40 mg/mL
- Qb10% 6 min [27]: 44 mg/mL
- Qb10% 2.4 min [28]: 52 mg/mL
- Qb10% 6 min [28]: 61 mg/mL
- Qb10% 2.4 min [29]: 42 mg/mL
- Qb10% 6 min [29]: 47 mg/mL
- Qb10% 2.4 min [30]: 41.9 mg/mL
- Qb10% 6 min [30]: 54.7 mg/mL
- Qb10% 2.4 min [31]: 52 mg/mL
- Qb10% 6 min [31]: 67 mg/mL
- Qb10% 2.4 min [32]: 45 mg/mL
- Qb10% 6 min [32]: 47 mg/mL
- Qb10% 2.4 min [33]: 49 mg/mL
- Qb10% 6 min [33]: 56 mg/mL
- Qb10% 2.4 min [34]: 56.9 mg/mL
- Qb10% 6 min [34]: 71.1 mg/mL
- Qb10% 2.4 min [35]: 44.4 mg/mL
- Qb10% 6 min [35]: 58.2 mg/mL
- Qb10% 2.4 min [36]: 31.8 mg/mL
- Qb10% 6 min [36]: 58 mg/mL
- Qb10% 2.4 min [37]: 37 mg/mL
- Qb10% 6 min [37]: 66 mg/mL
- Qb10% 2.4 min [38]: 45 mg/mL and 45.1 mg/mL
- Qb10% 6 min [38]: 57 mg/mL and 57.2 mg/mL
